Target: gHΔTM-Fc/gL (Kaposi's sarcoma-associated herpesvirus (KSHV))

Sequence of solEphA2-Fc (P29317 25-534): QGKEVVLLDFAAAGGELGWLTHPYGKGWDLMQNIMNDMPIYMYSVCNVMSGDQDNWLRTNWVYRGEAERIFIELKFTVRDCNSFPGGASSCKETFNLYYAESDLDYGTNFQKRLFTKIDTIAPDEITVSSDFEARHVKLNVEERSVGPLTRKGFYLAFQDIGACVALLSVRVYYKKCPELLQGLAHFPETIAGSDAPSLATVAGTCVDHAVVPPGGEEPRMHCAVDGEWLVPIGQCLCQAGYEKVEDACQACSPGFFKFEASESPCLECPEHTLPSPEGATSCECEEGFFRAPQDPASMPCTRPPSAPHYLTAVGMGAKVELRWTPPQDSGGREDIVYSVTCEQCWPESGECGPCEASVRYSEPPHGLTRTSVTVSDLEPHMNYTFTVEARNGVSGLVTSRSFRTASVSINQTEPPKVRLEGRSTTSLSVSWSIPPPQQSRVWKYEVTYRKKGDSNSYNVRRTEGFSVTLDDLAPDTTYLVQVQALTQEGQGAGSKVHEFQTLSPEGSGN

## solEphA2-Fc (from UniProt P29317-1 25-534) (Fc fusion)
  inhibition of KSHV infection of 293T cells by solEphA2-Fc at 2 µg/ml: 80%

— publication PMC3645317
